Data from patent CN109265548A (UNIV SOUTHEAST, dated 2019).

Columns and labels:
PD-L2(人) = target: T1, PD-L2(人) (human, UniProt Q9BQ51 20-220, limits assumed); assay: ELISA, antigen coated 0.5 μg per well, detection with rabbit anti-HA and HRP goat anti-rabbit
T1 construct: also called 人PD-L2
T1 sequence (looked up): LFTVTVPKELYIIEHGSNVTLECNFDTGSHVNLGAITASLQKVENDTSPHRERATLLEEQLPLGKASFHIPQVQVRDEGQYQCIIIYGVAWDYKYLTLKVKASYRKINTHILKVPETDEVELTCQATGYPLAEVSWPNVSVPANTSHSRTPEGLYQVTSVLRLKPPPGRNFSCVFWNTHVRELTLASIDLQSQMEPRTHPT

PD-L1(鼠) = target: T2, PD-L1(鼠) (鼠 (murine), UniProt Q9EP73 19-239, limits assumed); assay: as above
T2 construct: also called 鼠源的PD-L1
T2 sequence (Q9EP73 19-239 limits assumed): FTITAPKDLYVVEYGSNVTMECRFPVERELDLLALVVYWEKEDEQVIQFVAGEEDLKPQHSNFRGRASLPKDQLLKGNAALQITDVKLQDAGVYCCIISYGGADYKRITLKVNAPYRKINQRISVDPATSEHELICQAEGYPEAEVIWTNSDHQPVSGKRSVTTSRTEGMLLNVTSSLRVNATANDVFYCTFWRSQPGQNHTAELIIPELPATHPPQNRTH

- binding result (PD-L2(人)): no binding (tested: 10μg/mL)
- binding result (PD-L1(鼠)): no binding (tested: 10μg/mL)
B1: 抗PD-L1Nb15 (VHH)
VHH: QVQLVESGGGSVQAGGALRLSCAASGYTSTSNCMGWFRQAPGKEREGVAAIYTGGGSTYYADSVKGRFTISQDNAKNTVYLQMNSLKPEDTAMYYCAAGDLDPAEYSDYDPTVFNYWGQGTLVTVSS
notes: Expressed from pET32a in E. coli BL21(DE3), purified on Ni-IDA and detected in ELISA with an anti-HA antibody; the vector-derived tags are not described; also called antiPD-L1Nb15; 抗PD-L1-VHH15
